# Assay results published in patent US20230035659A1, “Compositions and Methods for TTR Gene Editing and Treating ATTR Amyloidosis Comprising a Corticosteroid or Use Thereof” (Intellia Therapeutics, Inc., priority 2019, published 2023).
# Strand notation (5' to 3'): a small letter for the sugar, then the base; units joined by * are phosphorothioate-linked, units joined directly phosphodiester-linked; [ ] holds rarer units or linkages, { } end groups; capitals alone tell only the bases. m = 2'-O-methyl; r = 2'-OH (RNA)
# B1: G000502: TTR Cyno specific sgRNA modified sequence, SEQ ID NO: 114; guide sequence of CR000689; cross homologous between mouse and cyno (nucleic acid)
# guide: mA*mC*mA*rCrArArArUrArCrCrArGrUrCrCrArGrCrGrGrUrUrUrUrArGrAmGmCmUmAmGmAmAmAmUmAmGmCrArArGrUrUrArArArArUrArArGrGrCrUrArGrUrCrCrGrUrUrArUrCrAmAmCmUmUmGmAmAmAmAmAmGmUmGmGmCmAmCmCmGmAmGmUmCmGmGmUmGmCmU*mU*mU*mU
# Tested on: mouse TTR
# Test: Serum mouse TTR (ELISA) after LNP dosing of mice with murine TTR
# Type: in vivo
# Settings: wild type CD-1 mice; LNP 45:44:9:2, N:P 6; 1, 0.3, 0.1, 0.03, 0.01 mg/kg
# Method: Unless otherwise noted, CD-1 female mice, ranging from 6-10 weeks of age were used in each study. Animals were weighed and grouped according to body weight for preparing dosing solutions based on group average weight. LNPs were dosed via the lateral tail vein in a volume of 0.2 mL per animal (approximately 10 mL per kilogram body weight). […] Body weight was measured at twenty-four hours post-administration, and animals were euthanized at various time points by exsanguination via cardiac puncture under isoflourane anesthesia. Blood was collected into serum separator tubes or into tubes containing buffered sodium citrate for plasma as described herein. […]
# Blood was collected and the serum was isolated as indicated. The total mouse TTR serum levels were determined using a Mouse Prealbumin (Transthyretin) ELISA Kit (Aviva Systems Biology, Cat. OKIA00111); rat TTR serum levels were measured using a rat specific ELISA kit (Aviva Systems Biology catalog number OKIA00159); human TTR serum levels were measured using a human specific ELISA kit (Aviva Systems Biology catalog number OKIA00081); each according to manufacture's protocol. […] The absorbance of the contents was measured on the Spectramax M5 plate reader with analysis using SoftmaxPro version 7.0 software. […]
molecule,measurement,value
B1,"serum mouse TTR levels, dose response",dose response
